The record followed here is paper doi:10.1101/2025.03.09.642192.

pKd: −log10 of the molar value.

Experiment [1] has as its target purified hexon protein from ChAdOx1 (chimpanzee adenovirus Y25 (ChAdOx1)). Kind of experiment: SPR.
The target of experiment [2] is HAdV-C5 hexon protein (HAdV-C5) (UniProt P04133). Kind of experiment: SPR. Background: Surface plasmon resonance follows binding to a sensor surface in real time, without labels.
Sequence of HAdV-C5 hexon protein (HAdV-C5) (P04133 whole entry): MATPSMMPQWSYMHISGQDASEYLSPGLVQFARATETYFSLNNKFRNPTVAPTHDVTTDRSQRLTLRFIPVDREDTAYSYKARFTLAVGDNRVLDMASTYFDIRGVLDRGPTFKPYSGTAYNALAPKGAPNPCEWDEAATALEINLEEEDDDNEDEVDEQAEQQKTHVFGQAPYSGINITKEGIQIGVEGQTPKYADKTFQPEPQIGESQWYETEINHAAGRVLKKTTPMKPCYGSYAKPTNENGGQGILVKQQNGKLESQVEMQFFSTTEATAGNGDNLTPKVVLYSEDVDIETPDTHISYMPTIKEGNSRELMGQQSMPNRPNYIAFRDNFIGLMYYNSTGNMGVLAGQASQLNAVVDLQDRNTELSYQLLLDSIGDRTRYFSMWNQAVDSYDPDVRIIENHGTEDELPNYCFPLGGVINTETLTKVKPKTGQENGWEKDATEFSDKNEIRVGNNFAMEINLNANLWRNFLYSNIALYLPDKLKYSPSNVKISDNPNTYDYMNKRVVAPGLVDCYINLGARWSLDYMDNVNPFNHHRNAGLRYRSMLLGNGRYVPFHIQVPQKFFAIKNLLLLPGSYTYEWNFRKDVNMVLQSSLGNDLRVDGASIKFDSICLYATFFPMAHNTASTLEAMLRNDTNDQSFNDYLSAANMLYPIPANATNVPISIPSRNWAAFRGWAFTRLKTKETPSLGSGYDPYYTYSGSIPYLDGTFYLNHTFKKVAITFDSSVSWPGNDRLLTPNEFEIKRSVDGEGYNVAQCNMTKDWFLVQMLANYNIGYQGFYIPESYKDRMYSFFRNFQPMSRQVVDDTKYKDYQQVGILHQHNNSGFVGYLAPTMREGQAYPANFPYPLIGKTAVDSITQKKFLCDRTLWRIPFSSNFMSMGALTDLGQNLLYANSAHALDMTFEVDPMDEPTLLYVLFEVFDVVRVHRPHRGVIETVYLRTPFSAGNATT

By pKd is commonly meant −log10 of the Kd, conventionally taken in molar units. On to “platelet factor 4 (PF4) (natural protein)”, for which the negative logarithm of the Kd (pKd) in experiment [1] is 6.53; in experiment [2], 6.12.
